Reference: US12721801B2, “Compositions and methods relating to stimulation of hyaluronic acid” (Alastin Skincare, Inc., priority 2020, dated 2026)

Tests used:
[1] = tested on: human fibroblast cells; assay: HA production assessment, SDS-PAGE of fibroblast supernatants; assay type: cell-based; conditions: Experiment 2, primary adult human dermal fibroblasts, 72 hours, octapeptide 100 ug/mL, SymDecanox 250 ug/mL, others 500 ug/mL, FIG. 6
Protocol: In a second experiment, HA production was also assessed with the test compounds below. Briefly, primary adult human dermal fibroblast cells were cultured until near confluent in 6 well plates. The cells were treated with the compounds and concentrations indicated to the right. After 72 hours, 100 μL of media were collected from each treatment condition and was concentrated in a SpeedVac concentrator to a final volume of ~10 uL.
All 10 μL of the supernatants were loaded onto an acrylamide gel (NuPAGE 4-12% Bis-Tris Protein Gel) and run at 200V for 3 hours. The gel was stained to detect the presence of HA. Data is seen in FIG. 6. […] Lane 11 is the negative control, representing the untreated cells. This band represents the cells constitutive level of HA. Treating the cells with all the indicated compounds (lanes 1-10) produced an increased level of high molecular weight HA. […]

[2] = tested on: human dermal fibroblasts; conditions: cited from earlier work

B1: Lactoferrin: a transferrin; wound healing attributes, increases HA secretion (protein, UniProt P02788 20-710, looked up)
Lactotransferrin: GRRRSVQWCAVSQPEATKCFQWQRNMRKVRGPPVSCIKRDSPIQCIQAIAENRADAVTLDGGFIYEAGLAPYKLRPVAAEVYGTERQPRTHYYAVAVVKKGGSFQLNELQGLKSCHTGLRRTAGWNVPIGTLRPFLNWTGPPEPIEAAVARFFSASCVPGADKGQFPNLCRLCAGTGENKCAFSSQEPYFSYSGAFKCLRDGAGDVAFIRESTVFEDLSDEAERDEYELLCPDNTRKPVDKFKDCHLARVPSHAVVARSVNGKEDAIWNLLRQAQEKFGKDKSPKFQLFGSPSGQKDLLFKDSAIGFSRVPPRIDSGLYLGSGYFTAIQNLRKSEEEVAARRARVVWCAVGEQELRKCNQWSGLSEGSVTCSSASTTEDCIALVLKGEADAMSLDGGYVYTAGKCGLVPVLAENYKSQQSSDPDPNCVDRPVEGYLAVAVVRRSDTSLTWNSVKGKKSCHTAVDRTAGWNIPMGLLFNQTGSCKFDEYFSQSCAPGSDPRSNLCALCIGDEQGENKCVPNSNERYYGYTGAFRCLAENAGDVAFVKDVTVLQNTDGNNNEAWAKDLKLADFALLCLDGKRKPVTEARSCHLAMAPNHAVVSRMDKVERLKQVLLHQQAKFGRNGSDCPDKFCLFQSETKNLLFNDNTECLARLHGKTTYEKYLGPQYVAGITNLKKCSTSPLLEACEFLRK
Level of high molecular weight HA (band on gel) [1]: secrete high molecular weight HA
HA secretion ([2]; literature (Saito et al. 2011)): increases HA secretion
Proliferation of fibroblasts ([2]; literature (Saito et al. 2011; Takayama 2012)): promotes proliferation of fibroblasts
